Laboratory results from patent US20240010750A1 (Bayer, published 2024).

Key:
[1] = target: T1, cynomolgus alpha2-Antiplasmin (cynomolgus (Macaca fascicularis), UniProt P08697 28-491 (human entry)); assay: cell-based or functional assay
T1 chain: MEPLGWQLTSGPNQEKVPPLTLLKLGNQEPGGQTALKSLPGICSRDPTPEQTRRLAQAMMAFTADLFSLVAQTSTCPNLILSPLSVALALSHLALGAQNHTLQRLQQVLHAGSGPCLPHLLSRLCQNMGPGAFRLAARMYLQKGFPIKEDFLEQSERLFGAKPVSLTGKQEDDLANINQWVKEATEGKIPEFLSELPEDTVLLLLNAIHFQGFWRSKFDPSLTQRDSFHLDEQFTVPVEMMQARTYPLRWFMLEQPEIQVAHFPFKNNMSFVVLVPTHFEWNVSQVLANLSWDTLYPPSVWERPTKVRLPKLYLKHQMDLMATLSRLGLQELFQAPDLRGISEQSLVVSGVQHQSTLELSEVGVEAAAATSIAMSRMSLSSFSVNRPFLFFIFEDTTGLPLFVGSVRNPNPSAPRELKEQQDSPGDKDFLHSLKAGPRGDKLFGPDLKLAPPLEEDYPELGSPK

[2] = target: T2, human alpha2-Antiplasmin (human, UniProt P08697 40-491); assay: ELISA, coated antigen, 1st exp.
T2 construct: Bought (antibodies online, ABIN2544306); also called human A2AP; a2AP
T2 sequence: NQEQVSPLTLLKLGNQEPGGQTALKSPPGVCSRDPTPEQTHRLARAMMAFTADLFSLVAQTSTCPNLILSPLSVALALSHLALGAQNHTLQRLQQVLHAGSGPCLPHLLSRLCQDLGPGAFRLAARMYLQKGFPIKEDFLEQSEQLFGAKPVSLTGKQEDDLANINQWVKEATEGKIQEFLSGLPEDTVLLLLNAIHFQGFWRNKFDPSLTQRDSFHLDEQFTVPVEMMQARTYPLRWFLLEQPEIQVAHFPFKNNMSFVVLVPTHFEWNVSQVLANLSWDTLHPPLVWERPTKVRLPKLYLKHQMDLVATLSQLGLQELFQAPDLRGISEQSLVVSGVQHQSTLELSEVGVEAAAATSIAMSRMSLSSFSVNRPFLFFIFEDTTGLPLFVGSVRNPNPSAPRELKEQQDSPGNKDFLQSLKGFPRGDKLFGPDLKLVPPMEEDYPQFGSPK

[3] = target: T3, rabbit alpha2-Antiplasmin (rabbit (Oryctolagus cuniculus)); assay: ELISA, coated antigen, 1st exp.
T3 construct: Made in house in HEK293 cells, purified by Ni-IMAC and SEC (a His tag is implied but not described); also called rabbit A2AP; Oryctolagus cuniculus A2AP
T3 chain: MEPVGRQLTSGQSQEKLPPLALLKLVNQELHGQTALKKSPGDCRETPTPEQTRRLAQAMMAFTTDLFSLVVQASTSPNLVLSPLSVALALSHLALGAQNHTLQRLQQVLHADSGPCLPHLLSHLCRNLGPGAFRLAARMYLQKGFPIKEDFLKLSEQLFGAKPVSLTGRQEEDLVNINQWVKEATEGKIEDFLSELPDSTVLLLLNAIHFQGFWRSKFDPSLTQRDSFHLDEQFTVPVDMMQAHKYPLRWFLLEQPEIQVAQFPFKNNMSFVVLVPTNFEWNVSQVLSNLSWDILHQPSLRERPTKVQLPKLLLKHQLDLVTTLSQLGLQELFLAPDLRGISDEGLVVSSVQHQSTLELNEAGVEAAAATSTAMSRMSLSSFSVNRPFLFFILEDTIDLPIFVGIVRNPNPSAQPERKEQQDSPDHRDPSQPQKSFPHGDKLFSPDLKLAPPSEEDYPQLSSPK

[4] = target: T1, cynomolgus alpha2-Antiplasmin; assay: ELISA, coated antigen, 1st exp.
[5] = target: T1, cynomolgus alpha2-Antiplasmin; assay: ELISA, coated antigen (FIG. 6.1 legend)
[6] = target: T4, A2AP peptides with the consensus motif SRMSLSS (human); assay: PEPperCHIP peptide microarray, antibody at 10 µg/ml
T4 construct: Consensus motif shared by the reacting peptides of the PEPperCHIP arrays (linear 15-mers; cyclic 7-, 10- and 13-mers closed by a thioether)
T4 peptide: SRMSLSS
Procedure: Antibodies were incubated on the Microarray in concentrations of 1 μg/ml, 10 μg/ml and 100 μg/ml in incubation buffer. Incubation time was 16 h at 4° C. and shaking at 140 rpm.
As secondary antibody the goat anti-human IgG (Fc) DyLight680 was used at a dilution of 1:5000. This detection antibody was incubated on the Microarray at 45 min staining in incubation buffer at room temperature.
Microarray image analysis was done with PepSlide® Analyzer. A software algorithm was used to break down fluorescence intensities of each spot into raw, foreground and background signal, and calculated averaged median foreground intensities and spot-to-spot deviations of spot duplicates. Based on averaged median foreground intensities, an intensity map was generated and interactions in the peptide map highlighted by an intensity color code with red for high and white for low spot intensities. Averaged spot intensities of the assays were plotted with the antibody samples against the antigen sequence from the N- to the C-terminus to visualize overall spot intensities and signal-to-noise ratios. The intensity plots were correlated with peptide and intensity maps as well as with visual inspection of the microarray scans to identify the epitopes of the tested antibodies.

B1: TPP-12387 hIgG1 (antibody, V domains shown)
VH: EVQLLESGGGLVQPGGSLRLSCAASGFTFDDYAMSWVRQAPGKGLEWVSAIGTGGGTYYADSVKGRFTISRDNSKNTLYLQMNSLRAEDTAVYYCAREYYDSSGYYHLDYWGQGTLVTVSS
VL: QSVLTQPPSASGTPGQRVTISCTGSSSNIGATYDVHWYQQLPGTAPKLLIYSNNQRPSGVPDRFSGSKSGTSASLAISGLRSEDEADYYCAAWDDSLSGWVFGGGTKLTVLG
notes: Fully human IgG1 lambda from the BioInvent n-CoDeR Fab lambda library; parental lead antibody
Which results are given for B1?
function blocking activity IC50, 1st exp. (FIG. 6.2) [1]: 160 nM; function blocking activity IC50, 2nd exp. [1]: 160 nM; EC50 [2]: 120 nM; EC50 [3]: 6 nM; EC50 [4]: 90 nM; EC50 [5]: 99 nM; signal-to-noise-ratio at 10 µg/ml [6]: 2260
